Experimental data: US20220332808A1, “HUMAN-DERIVED ANTI-HUNTINGTIN (HTT) ANTIBODIES AND USES THEREOF” (published 2022)
“And” between values parts separate entries of the source, which are not always exact repeats. Equal values may be shown once. Where no end group is shown, it is not given here.

T1: BSA-coupled C-terminal peptide of Htt Exon1 (the 14 C-terminal amino acids) (human, also: coupled to BSA)
T1 peptide: PPGPAVAEEPLHRP

T2: C-terminal peptide of Htt Exon1 coated directly to the plate (not coupled to BSA) (human)
T2 peptide: PPGPAVAEEPLHRP

T3: BSA-coupled polyP repeat peptide of Htt Exon1 (human, also: coupled to BSA)
T3 peptide: PPPPPPPPPPP

B1: NI-302.35C1 (antibody, V domains shown)
VH: EVQLVESGGNLVQPGGSLRLSCTASGFTFSITALSWVRQAPEKGPQWVSAITGNAYGTYYADSVKGRFTISRDNAKNTLYLQMNGLRAEDTAIYYCVKGIASDSSGYSAFWGPGTLVTVSS
VL: EIVLTQSPATLSLSPGERATLSCRASQSVDNQFAWYQQKPGQAPRLLIYDASRRAPGIPDRFSGSGSGTDFTLTISSLEPEDFAIYYCQHRYTWLYTFGQGTRLEIK
B2: NI-302.63F3 (antibody, V domains shown)
VH: QVQLVQSGSAFKKPGTSVKVSCKASGYTFETRSMNWVRQAPGQGLEYMGWINTNTGNRTYVQAFRGRFVFSLDTSVSTAYLQISNLKTEDTAVYYCARGAGGGYWFDSWGQGTLVTVSS
VL: DIQMTQSPDSLAVSLGERATINCKSNQSLFYSSNNNNYLAWYQHKSGQPPKLLVYWGSTRESGVPDRFSGSGSGTDFTLTISSLQAEDVAIYYCHQYYHNPYTFGQGTKLEIK
B3: NI-302.7D8 (antibody, V domains shown)
VH: QVQLVQSGSELKKPGASVKVSCKASGYNFNNYAINWLRQAPGQGLEWMGWINTITGHPTYAQGFKGRFVFSLDTSVSTAYLQISSLKPEDTAVYYCARTYSNYGEFDYWGQGTLVTVSS
VL: QSALTQPASVSGSRGQSITISCTGTSSDVGSYNLVSWYQQYPGKAPKLIIHEGSERPSGVSNRFSGSKSGNTASLTISGLQAEDEADYYCCSYAGTTTFVLFGGGTKLTVL
B4: NI-302.15F9 (antibody, V domains shown)
VH: EVQLVESGGGLVTPGGSLRLSCEASGFLFKNSSMNWVRQTPGKGLEWVSSIDTSATNYKYYADSVKGRFTISRDDATNSLYLQMNSLRADDTATYYCARGYYTPRDFDYWGQGTLVTVSS
VL: DVVMTQSPQTLSVSLGQAASISCRSSQSLLYRDNNTYLNWFHQRPGQSPRRLIYRASDRDSGVPDRFSGGGSGTDFTLKISGVEAEDVGTYYCMQGTHWPRTFGQGTKVEIK
B5: NI-302.33C11 (antibody, V domains shown)
VH: EVQLVESGGGVVQPGNSLRLSCAASGFRFSDFGMHWVRQAPGKGLEWLALIWYDGGYKYYADSVKGRFTISRDNSKNTMFLQMNSLRAEDTAVYYCATHLEYCSRTTCYLGHWGQGTLVTVSS
VL: DIQLTQSPSFLSASVGDTVTFTCRASQGISDYLAWFQQKPGIAPKLLIYAASTLQTGVPSRFSGSGSGTEFTLTIRSLQSEDFGTYYCQQLKTYPYTFGQGTKVEIK

Columns and labels:
[1] = target: T1, BSA-coupled C-terminal peptide of Htt …; experiment: direct ELISA on BSA-coupled Htt Exon1 peptides
Method: (§1) To determine the half maximal effective concentration (EC₅₀) of recombinant human-derived HTT antibody NI-302.33C11 to BSA-coupled peptide fragments of the huntingtin Exon 1 direct ELISA with BSA-coupled Htt Exon1 domain peptides was performed.
(§2) In brief, 96 well microplates (Corning) were coated with BSA-coupled synthetic peptides (Schafer-N, Denmark) of the N-terminal amino acid 1-19 ([…], SEQ ID No.: 93), the P-rich domain sequence ([…], SEQ ID No.: 94), the polyP repeat sequence ([…], SEQ ID No.: 95) or the 14 C-terminal amino acids ([…], SEQ ID No.: 96) or with the full lengths GST-HD49 Exon 1 protein at […] in coating buffer (15 mM Na2CO3, 35 mM NaHCO₃, pH 9.42). Non-specific binding sites were blocked for 1 h at RT with PBS/0.1% Tween®-20 containing 2% BSA (Sigma-Aldrich, Buchs, Switzerland). Primary antibodies were diluted to the indicated concentrations and incubated 1 h at RT. Binding was determined using donkey anti-human IgG Fcγ-specific antibody conjugated with HRP, followed by measurement of HRP activity in a standard colorimetric assay and the EC₅₀ values were estimated by a non-linear regression using GraphPad Prism software (San Diego, USA). […]

[2] = target: HD49: huntingtin Exon1 protein with 49 polyQ repeats, GST tag cleaved off, aggregation reaction (human, UniProt P42858); experiment: direct ELISA, coated at 5 µg/ml
Method: (§3) To determine the half maximal effective concentration (EC₅₀) of recombinant human-derived HTT antibody […] to soluble and aggregated huntingtin Exon1 proteins with 21 or 49 polyQ repeats direct ELISA was performed. In brief, 96 well microplates (Corning) were coated with either GST-HD21, GST-HD49 or aggregated HD21 or HD49 at a concentration of 5 μg/ml in coating buffer (15 mM Na2CO3, 35 mM NaHCO₃, pH 9.42). Nonspecific binding sites were blocked for 1 h at RT with PBS/0.1% Tween®-20 containing 2% BSA (Sigma-Aldrich, Buchs, Switzerland). Primary antibodies were diluted to the indicated concentrations and incubated 1 h at RT. Binding was determined using either a donkey anti-human IgG Fcγ-specific antibody conjugated with HRP or a goat anti-mouse IgG (H+L)-specific antibody conjugated with HRP, followed by measurement of HRP activity in a standard colorimetric assay. Subsequently, EC₅₀ values were estimated by a non-linear regression using GraphPad Prism software (San Diego, USA).
(§4) To determine the half maximal effective concentration (EC₅₀) of recombinant human-derived HTT antibodies NI-302.35C1 and NI-302.72F10 to soluble and aggregated HTT Exon1 proteins with 21 or 49 polyQ repeats direct ELISA and EC50 determination was performed as described in Example 6, supra.
(§5) To determine the half maximal effective concentration (EC₅₀) of recombinant human-derived HTT antibody NI-302.7D8 to soluble and aggregated HTT Exon1 proteins with 21 or 49 polyQ repeats direct ELISA and EC50 determination was performed as described in Example 6, supra.

[3] = target: GST-HttExon1Q49 (human) (UniProt P42858); experiment: direct ELISA
Chain of GST-HttExon1Q49 (human) (P42858 1-88, change not shown): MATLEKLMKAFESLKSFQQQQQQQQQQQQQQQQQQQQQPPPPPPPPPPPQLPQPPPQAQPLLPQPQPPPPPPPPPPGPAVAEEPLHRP

[4] = target: T2, C-terminal peptide of Htt Exon1 coated …; experiment: direct ELISA, peptide coated directly
[5] = target: all four species: aggregated HD49, aggregated HD21, soluble GST-HD49 and GST-HD21 Htt Exon 1 proteins; experiment: direct ELISA, coated at 5 µg/ml
[6] = target: GST-HttExon1Q49 (human) (UniProt P42858); experiment: direct ELISA, coated at 5 µg/ml
[7] = target: T3, BSA-coupled polyP repeat peptide of Htt …; experiment: direct ELISA on BSA-coupled Htt Exon1 peptides
Method: as §1, §2

[8] = target: HD21: huntingtin Exon1 protein with 21 polyQ repeats, GST tag cleaved off, aggregation reaction (human, UniProt P42858); experiment: direct ELISA, coated at 5 µg/ml
Method: as §3, §4, §5

[9] = target: GST-HttExon1Q21 (human) (UniProt P42858); experiment: direct ELISA, coated at 5 µg/ml
Chain of GST-HttExon1Q21 (human) (P42858 1-88, change not shown): as above

Row | Binder | EC50 [2] [nM] | EC50 [3] [nM] | EC50 [5] | EC50 [6] [nM] | further results
1 | B1 | ~2.7 | 3.2 |  |  | EC50 [1]: ~0.7 nM; EC50 [4]: > 100 nM
2 | B2 |  |  | 0.2 to 0.4 nM |  | 
3 | B3 | 17 |  |  | 6 | 
4 | B4 |  |  | 5 nM and 35 nM |  | fold preference of HD49 vs. HD21 [5]: 5 fold
5 | B5 | ~0.1 | 0.03 |  | 0.1 | EC50 [7]: 0.03 nM; EC50 [8]: ~0.1 nM; EC50 [9]: 0.1 nM
